According to doi:10.1101/2020.02.09.940833:

Tests used:
SAR1B>A-helix (human) = SAR1B>A-helix (human) (UniProt Q9Y6B6); assay: liposome flotation
SAR1A (human) = SAR1A (human) (UniProt Q9NR31); assay: liposome flotation
SAR1A (human), sequence (Q9NR31 whole entry): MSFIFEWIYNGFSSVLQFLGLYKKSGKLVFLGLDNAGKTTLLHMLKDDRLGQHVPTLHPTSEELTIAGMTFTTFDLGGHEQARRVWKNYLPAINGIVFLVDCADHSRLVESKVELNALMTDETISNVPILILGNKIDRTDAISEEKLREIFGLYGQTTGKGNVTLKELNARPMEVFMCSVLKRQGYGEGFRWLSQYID

SEC23A, sequence (Q15436 whole entry): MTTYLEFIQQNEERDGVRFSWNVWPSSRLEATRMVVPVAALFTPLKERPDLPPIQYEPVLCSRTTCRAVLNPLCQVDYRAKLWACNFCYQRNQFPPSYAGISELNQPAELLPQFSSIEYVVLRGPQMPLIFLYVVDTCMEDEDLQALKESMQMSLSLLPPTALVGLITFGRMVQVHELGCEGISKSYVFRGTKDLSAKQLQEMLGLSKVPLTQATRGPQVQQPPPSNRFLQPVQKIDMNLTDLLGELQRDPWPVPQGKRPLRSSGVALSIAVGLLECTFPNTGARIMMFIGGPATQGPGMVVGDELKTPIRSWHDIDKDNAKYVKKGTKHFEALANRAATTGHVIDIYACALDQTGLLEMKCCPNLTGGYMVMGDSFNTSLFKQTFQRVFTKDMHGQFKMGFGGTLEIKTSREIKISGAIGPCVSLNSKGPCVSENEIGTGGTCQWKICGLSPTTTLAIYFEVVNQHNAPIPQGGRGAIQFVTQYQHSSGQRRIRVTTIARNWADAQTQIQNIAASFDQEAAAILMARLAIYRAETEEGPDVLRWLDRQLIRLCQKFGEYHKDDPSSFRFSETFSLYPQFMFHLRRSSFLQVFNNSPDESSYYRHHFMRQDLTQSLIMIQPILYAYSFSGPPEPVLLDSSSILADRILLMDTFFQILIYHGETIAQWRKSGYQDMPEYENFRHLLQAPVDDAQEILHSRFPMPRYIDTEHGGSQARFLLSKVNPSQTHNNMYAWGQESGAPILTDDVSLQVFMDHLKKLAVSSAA

Row | Substance | fold reduction of binding (reference as read: SAR1A>B-helix) (SAR1B>A-helix (human)) [fold] | fold recruitment relative to SAR1B (SAR1A (human)) [fold]
1 | SEC23A (from UniProt Q15436 1-765) (natural protein) | 2 | –
2 | GTPase activating fragment of SEC31A (from UniProt O94979 1-1220) (domain or fragment) | – | 2
